Test results reported in US20080194482A1, “Selective Apac2 Receptor Peptide Agonists” (priority 2005, published 2008).
Square brackets hold non-standard residues; d marks the D form. Ends that are not written are not given here. * marks the point of attachment. Orn = NCCC[C@H](N)C(=O)O; Hexanoyl = CCCCCC(=O)*; Aib = CC(C)(N)C(=O)O

T1: human VPAC2 receptor (human, UniProt P41587 24-438)
T1 sequence (looked up): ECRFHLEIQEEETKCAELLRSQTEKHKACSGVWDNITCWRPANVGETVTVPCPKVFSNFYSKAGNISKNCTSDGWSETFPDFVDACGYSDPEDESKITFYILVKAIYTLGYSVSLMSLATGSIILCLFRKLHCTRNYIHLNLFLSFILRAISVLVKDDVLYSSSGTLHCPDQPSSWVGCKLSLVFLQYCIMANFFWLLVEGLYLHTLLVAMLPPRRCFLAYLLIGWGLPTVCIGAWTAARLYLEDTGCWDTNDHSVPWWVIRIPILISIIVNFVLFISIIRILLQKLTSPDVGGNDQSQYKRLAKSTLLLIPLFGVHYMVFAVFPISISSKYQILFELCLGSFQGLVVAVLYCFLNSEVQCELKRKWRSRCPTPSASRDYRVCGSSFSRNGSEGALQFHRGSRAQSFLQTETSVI

T2: rat VPAC2 receptor (rat, UniProt P35000 23-437)
T2 sequence (looked up): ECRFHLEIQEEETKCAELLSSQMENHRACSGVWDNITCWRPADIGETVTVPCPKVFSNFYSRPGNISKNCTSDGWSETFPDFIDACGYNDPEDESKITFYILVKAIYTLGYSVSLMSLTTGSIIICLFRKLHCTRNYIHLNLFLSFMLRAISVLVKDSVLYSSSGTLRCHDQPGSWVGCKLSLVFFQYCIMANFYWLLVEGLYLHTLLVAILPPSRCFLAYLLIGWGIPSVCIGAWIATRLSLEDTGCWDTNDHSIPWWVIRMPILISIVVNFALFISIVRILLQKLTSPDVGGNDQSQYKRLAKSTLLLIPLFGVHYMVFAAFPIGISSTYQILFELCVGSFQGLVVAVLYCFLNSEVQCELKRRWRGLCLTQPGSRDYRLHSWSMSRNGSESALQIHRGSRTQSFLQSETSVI

T3: rat VPAC1 receptor (rat, UniProt P30083 31-459)
T3 sequence (looked up): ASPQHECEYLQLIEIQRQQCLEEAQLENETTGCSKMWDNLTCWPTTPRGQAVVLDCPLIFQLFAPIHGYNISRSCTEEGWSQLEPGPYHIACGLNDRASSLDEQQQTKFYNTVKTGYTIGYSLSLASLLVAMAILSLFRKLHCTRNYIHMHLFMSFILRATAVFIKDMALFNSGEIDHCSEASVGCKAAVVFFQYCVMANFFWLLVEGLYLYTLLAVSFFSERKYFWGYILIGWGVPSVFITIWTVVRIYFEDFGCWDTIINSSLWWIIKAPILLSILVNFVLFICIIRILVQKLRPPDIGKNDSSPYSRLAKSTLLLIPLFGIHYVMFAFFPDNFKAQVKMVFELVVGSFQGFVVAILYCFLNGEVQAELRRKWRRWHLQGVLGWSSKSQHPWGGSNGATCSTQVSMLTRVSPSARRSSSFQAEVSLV


target: T1, human VPAC2 receptor; assay: cell-based or functional assay

Row | Binder | Human VPAC2 Receptor: Alpha Screen (EC50; nM), cAMP generation [nM]
1 | Hexanoyl-HSDAVFTDNYT[Orn]LLAKLALQKYLQSI[Orn]N[Orn]GGPSSGAPPPS [VPAC2 receptor peptide agonist P371] | 0.13
2 | HSDAVFTDNYTXLRXQVAAXKYLQSIKNKRYGGPSSGAPPPS (N-terminal hexanoyl (C6); hR (homoarginine) at 12; Aib at 15 and 20) [VPAC2 receptor peptide agonist P343] | 0.29
3 | Hexanoyl-HSDAVFTDSYT[Orn]LR[Aib]QVAA[Aib]KYLQSI[Orn]N[Orn]GGPSSGAPPPS [VPAC2 receptor peptide agonist P392] | 0.21
4 | Hexanoyl-HSEAVFTENYT[Orn]LR[Aib]QVAA[Aib]KYLQSI[Orn]N[Orn]GGPSSGAPPPS [VPAC2 receptor peptide agonist P362] | 0.58
5 | HSDAVFTDNYTXLRXQVAAXKYLQSSXNXGGPSSGAPPPS (N-terminal hexanoyl (C6); Orn at 12, 27 and 29; Aib at 15 and 20) [VPAC2 receptor peptide agonist P382] | 0.33
6 | HSDAVFTDNYTXLRXQVAAXKSLQSIXNXGGPSSGAPPPS (N-terminal hexanoyl (C6); Orn at 12, 27 and 29; Aib at 15 and 20) [VPAC2 receptor peptide agonist P385] | 23.9
7 | Hexanoyl-HSDAVFTDQYT[Orn]LR[Aib]QVAA[Aib]KYLQSI[Orn]Q[Orn]GGPSSGAPPPS [VPAC2 receptor peptide agonist P363] | 0.27
8 | HSDAVFTDNYTXLRXQVASXKYLQSIXNXGGPSSGAPPPS (N-terminal hexanoyl (C6); Orn at 12, 27 and 29; Aib at 15 and 20) [VPAC2 receptor peptide agonist P387] | 0.47
9 | HSDAVFTDNYTXLRXQVAAXSYLQSIXNXGGPSSGAPPPS (N-terminal hexanoyl (C6); Orn at 12, 27 and 29; Aib at 15 and 20) [VPAC2 receptor peptide agonist P386] | 0.65
10 | HSDAVFTDNYTXLRXQVAAXKYLSSIXNXGGPSSGAPPPS (N-terminal hexanoyl (C6); Orn at 12, 27 and 29; Aib at 15 and 20) [VPAC2 receptor peptide agonist P383] | 0.12
11 | HSDAVFTDNYTXLRXQVAAXKYSQSIXNXGGPSSGAPPPS (N-terminal hexanoyl (C6); Orn at 12, 27 and 29; Aib at 15 and 20) [VPAC2 receptor peptide agonist P384] | 6.7

target: T2, rat VPAC2 receptor; assay: cell-based or functional assay

Row | Binder | Rat VPAC2 Receptor: DiscoveRx (EC50; nM), cAMP generation [nM]
12 | HSDAVFTDNYTXLRXQVAAXKYLQSIKNKRYGGPSSGAPPPS (N-terminal hexanoyl (C6); hR (homoarginine) at 12; Aib at 15 and 20) [VPAC2 receptor peptide agonist P343] | 0.15
13 | Hexanoyl-HSDAVFTDSYT[Orn]LR[Aib]QVAA[Aib]KYLQSI[Orn]N[Orn]GGPSSGAPPPS [VPAC2 receptor peptide agonist P392] | 0.08
14 | Hexanoyl-HSEAVFTENYT[Orn]LR[Aib]QVAA[Aib]KYLQSI[Orn]N[Orn]GGPSSGAPPPS [VPAC2 receptor peptide agonist P362] | 1.22
15 | HSDAVFTDNYTXLRXQVAAXKYLQSSXNXGGPSSGAPPPS (N-terminal hexanoyl (C6); Orn at 12, 27 and 29; Aib at 15 and 20) [VPAC2 receptor peptide agonist P382] | 0.37
16 | HSDAVFTDNYTXLRXQVAAXKSLQSIXNXGGPSSGAPPPS (N-terminal hexanoyl (C6); Orn at 12, 27 and 29; Aib at 15 and 20) [VPAC2 receptor peptide agonist P385] | 28.8
17 | Hexanoyl-HSDAVFTDQYT[Orn]LR[Aib]QVAA[Aib]KYLQSI[Orn]Q[Orn]GGPSSGAPPPS [VPAC2 receptor peptide agonist P363] | 0.09
18 | HSDAVFTDNYTXLRXQVASXKYLQSIXNXGGPSSGAPPPS (N-terminal hexanoyl (C6); Orn at 12, 27 and 29; Aib at 15 and 20) [VPAC2 receptor peptide agonist P387] | 0.4
19 | HSDAVFTDNYTXLRXQVAAXSYLQSIXNXGGPSSGAPPPS (N-terminal hexanoyl (C6); Orn at 12, 27 and 29; Aib at 15 and 20) [VPAC2 receptor peptide agonist P386] | 0.28
20 | HSDAVFTDNYTXLRXQVAAXKYLSSIXNXGGPSSGAPPPS (N-terminal hexanoyl (C6); Orn at 12, 27 and 29; Aib at 15 and 20) [VPAC2 receptor peptide agonist P383] | 0.18
21 | HSDAVFTDNYTXLRXQVAAXKYSQSIXNXGGPSSGAPPPS (N-terminal hexanoyl (C6); Orn at 12, 27 and 29; Aib at 15 and 20) [VPAC2 receptor peptide agonist P384] | 8.05

target: T3, rat VPAC1 receptor; assay: cell-based or functional assay

Row | Binder | Rat VPAC1 Receptor: DiscoveRx (EC50; nM), cAMP generation [nM]
22 | HSDAVFTDNYTXLRXQVAAXKYLQSIKNKRYGGPSSGAPPPS (N-terminal hexanoyl (C6); hR (homoarginine) at 12; Aib at 15 and 20) [VPAC2 receptor peptide agonist P343] | 2.62
23 | Hexanoyl-HSDAVFTDSYT[Orn]LR[Aib]QVAA[Aib]KYLQSI[Orn]N[Orn]GGPSSGAPPPS [VPAC2 receptor peptide agonist P392] | 0.71
24 | Hexanoyl-HSEAVFTENYT[Orn]LR[Aib]QVAA[Aib]KYLQSI[Orn]N[Orn]GGPSSGAPPPS [VPAC2 receptor peptide agonist P362] | 35.9
25 | HSDAVFTDNYTXLRXQVAAXKYLQSSXNXGGPSSGAPPPS (N-terminal hexanoyl (C6); Orn at 12, 27 and 29; Aib at 15 and 20) [VPAC2 receptor peptide agonist P382] | 8.21
26 | HSDAVFTDNYTXLRXQVAAXKSLQSIXNXGGPSSGAPPPS (N-terminal hexanoyl (C6); Orn at 12, 27 and 29; Aib at 15 and 20) [VPAC2 receptor peptide agonist P385] | 96.8
27 | Hexanoyl-HSDAVFTDQYT[Orn]LR[Aib]QVAA[Aib]KYLQSI[Orn]Q[Orn]GGPSSGAPPPS [VPAC2 receptor peptide agonist P363] | 1.44
28 | HSDAVFTDNYTXLRXQVASXKYLQSIXNXGGPSSGAPPPS (N-terminal hexanoyl (C6); Orn at 12, 27 and 29; Aib at 15 and 20) [VPAC2 receptor peptide agonist P387] | 20.4
29 | HSDAVFTDNYTXLRXQVAAXSYLQSIXNXGGPSSGAPPPS (N-terminal hexanoyl (C6); Orn at 12, 27 and 29; Aib at 15 and 20) [VPAC2 receptor peptide agonist P386] | 4.34
30 | HSDAVFTDNYTXLRXQVAAXKYLSSIXNXGGPSSGAPPPS (N-terminal hexanoyl (C6); Orn at 12, 27 and 29; Aib at 15 and 20) [VPAC2 receptor peptide agonist P383] | 1.68
31 | HSDAVFTDNYTXLRXQVAAXKYSQSIXNXGGPSSGAPPPS (N-terminal hexanoyl (C6); Orn at 12, 27 and 29; Aib at 15 and 20) [VPAC2 receptor peptide agonist P384] | > 600

target: T1, human VPAC2 receptor; assay: filter binding, human VPAC2 membranes, competition with 125I-VIP;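 also: assay plate incubated 1 h with shaking, then filtered, with filter-retained counts measured after adding scintillant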
Procedure: The filled plate is incubated for 1 hour with shaking.
The transfer from assay plate to filter plate is conducted. The blocking buffer is aspirated by vacuum filtration and washed two times with flush buffer. 90 μL is transferred from the assay plate to the filter plate. The 90 μL transferred from assay plate is aspirated and washed three times with 200 μL flush buffer. The plastic support is removed. It is dried for 1 hour at 60° C. 30 μL Microscint is added. The count is performed.

Row | Binder | IC50 [pM]
32 | Hexanoyl-HSDAVFTDNYT[Orn]LLAKLALQKYLQSI[Orn]N[Orn]GGPSSGAPPPS [VPAC2 receptor peptide agonist P371] | 340
33 | HSDAVFTDNYTXLRXQVAAXKYLQSIKNKRYGGPSSGAPPPS (N-terminal hexanoyl (C6); hR (homoarginine) at 12; Aib at 15 and 20) [VPAC2 receptor peptide agonist P343] | 850
34 | Hexanoyl-HSDAVFTDSYT[Orn]LR[Aib]QVAA[Aib]KYLQSI[Orn]N[Orn]GGPSSGAPPPS [VPAC2 receptor peptide agonist P392] | 450
35 | Hexanoyl-HSEAVFTENYT[Orn]LR[Aib]QVAA[Aib]KYLQSI[Orn]N[Orn]GGPSSGAPPPS [VPAC2 receptor peptide agonist P362] | 1910
36 | HSDAVFTDNYTXLRXQVAAXKYLQSSXNXGGPSSGAPPPS (N-terminal hexanoyl (C6); Orn at 12, 27 and 29; Aib at 15 and 20) [VPAC2 receptor peptide agonist P382] | 2170
37 | HSDAVFTDNYTXLRXQVAAXKSLQSIXNXGGPSSGAPPPS (N-terminal hexanoyl (C6); Orn at 12, 27 and 29; Aib at 15 and 20) [VPAC2 receptor peptide agonist P385] | 99200
38 | Hexanoyl-HSDAVFTDQYT[Orn]LR[Aib]QVAA[Aib]KYLQSI[Orn]Q[Orn]GGPSSGAPPPS [VPAC2 receptor peptide agonist P363] | 250
39 | HSDAVFTDNYTXLRXQVASXKYLQSIXNXGGPSSGAPPPS (N-terminal hexanoyl (C6); Orn at 12, 27 and 29; Aib at 15 and 20) [VPAC2 receptor peptide agonist P387] | 1390
40 | HSDAVFTDNYTXLRXQVAAXSYLQSIXNXGGPSSGAPPPS (N-terminal hexanoyl (C6); Orn at 12, 27 and 29; Aib at 15 and 20) [VPAC2 receptor peptide agonist P386] | 5920
41 | HSDAVFTDNYTXLRXQVAAXKYLSSIXNXGGPSSGAPPPS (N-terminal hexanoyl (C6); Orn at 12, 27 and 29; Aib at 15 and 20) [VPAC2 receptor peptide agonist P383] | 5010
42 | HSDAVFTDNYTXLRXQVAAXKYSQSIXNXGGPSSGAPPPS (N-terminal hexanoyl (C6); Orn at 12, 27 and 29; Aib at 15 and 20) [VPAC2 receptor peptide agonist P384] | 22200
